Source: PMC3544922
Values joined by “and” are separate entries in the source; they are usually repeats but may differ in a detail not shown here. Identical values can stand only once.

Molecular target: recombinant HIV-1 integrase (HIV-1)
Assay: atomic force microscopy; 50 ng integrase incubated with 10 ng target DNA xkyk in binding buffer with MnCl2 at 30°C, dialysed against PBS 48 h at 4°C, digested with ScaI, adsorbed on mica with spermidine, tapping mode in air; size and volume of integrase bound on DNA (n = 123)

recombinant HIV-1 integrase (enzyme)
stoichiometry N: 2 and 4
